The target in the assay is human complement Factor H (human) (UniProt P08603). The assay can be described thus: SPR. (SPR reads the build-up and loss of mass on a sensor chip optically.)
human complement Factor H (human), sequence (P08603 19-1231): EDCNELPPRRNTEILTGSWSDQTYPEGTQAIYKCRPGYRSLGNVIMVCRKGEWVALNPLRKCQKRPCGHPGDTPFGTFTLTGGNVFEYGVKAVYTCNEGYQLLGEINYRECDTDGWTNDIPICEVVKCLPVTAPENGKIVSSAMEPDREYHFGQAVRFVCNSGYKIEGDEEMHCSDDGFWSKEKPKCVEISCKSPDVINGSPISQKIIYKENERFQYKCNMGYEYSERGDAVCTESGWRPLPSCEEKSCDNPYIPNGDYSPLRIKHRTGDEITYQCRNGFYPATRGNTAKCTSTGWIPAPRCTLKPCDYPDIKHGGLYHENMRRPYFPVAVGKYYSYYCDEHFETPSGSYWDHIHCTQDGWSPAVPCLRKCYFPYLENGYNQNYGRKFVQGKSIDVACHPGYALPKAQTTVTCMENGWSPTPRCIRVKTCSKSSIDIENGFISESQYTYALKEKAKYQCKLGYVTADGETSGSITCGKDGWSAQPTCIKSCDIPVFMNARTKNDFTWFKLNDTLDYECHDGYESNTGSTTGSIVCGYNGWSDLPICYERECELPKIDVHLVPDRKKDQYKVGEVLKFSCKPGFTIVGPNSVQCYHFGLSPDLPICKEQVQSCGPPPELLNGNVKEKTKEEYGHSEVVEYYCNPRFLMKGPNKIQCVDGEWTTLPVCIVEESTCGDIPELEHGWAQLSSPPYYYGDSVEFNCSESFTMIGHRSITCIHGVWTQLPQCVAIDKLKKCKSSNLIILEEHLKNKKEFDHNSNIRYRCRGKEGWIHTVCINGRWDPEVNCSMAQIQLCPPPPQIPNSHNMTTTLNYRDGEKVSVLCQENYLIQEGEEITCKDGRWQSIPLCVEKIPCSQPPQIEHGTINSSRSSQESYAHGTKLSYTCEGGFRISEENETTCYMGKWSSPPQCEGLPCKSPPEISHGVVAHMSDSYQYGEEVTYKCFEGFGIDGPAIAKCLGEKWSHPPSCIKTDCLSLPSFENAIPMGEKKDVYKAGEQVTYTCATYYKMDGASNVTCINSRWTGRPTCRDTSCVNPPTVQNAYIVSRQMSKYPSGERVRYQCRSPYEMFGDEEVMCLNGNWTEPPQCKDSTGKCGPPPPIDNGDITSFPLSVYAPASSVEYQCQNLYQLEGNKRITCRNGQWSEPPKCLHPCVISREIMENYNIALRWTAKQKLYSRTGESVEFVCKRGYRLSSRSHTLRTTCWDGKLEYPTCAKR
Take “FHbp ID 1 E92K mutant, soluble recombinant (from UniProt Q9JXV4 20-274) (natural protein)”: the response units at 100 nM FHbp (response units) is less than 2.

As for “FHbp ID 1 H248L mutant, soluble recombinant (from UniProt Q9JXV4 20-274) (natural protein)”, the response units at 100 nM FHbp (response units) was less than 2.

Regarding “FHbp ID 1 S223R mutant, soluble recombinant (from UniProt Q9JXV4 20-274) (natural protein)”, the response units at 100 nM FHbp (response units) is less than 2.
